According to patent publication US20250043285A1 (UNM RAINFOREST INNOVATIONS, published 2025):

B1: GFP-GABARAP (other, UniProt O95166 1-116, looked up)
chain: MKFVYKEEHPFEKRRSEGEKIRKKYPDRVPVIVEKAPKARIGDLDKKKYLVPSDLTVGQFYFLIRKRIHLRAEDALFFFVNNVIPPTSATMGQLYQEHHEEDFFLYIAYSDESVYG
notes: Expressed in HEK293T cells for Co-IP; also called GFP-GABARAP (GABA); pDest-GFP-GABARAP; not shown: GFP
B2: Myc-VPS37A (in vitro translated, [35S]-radiolabeled, full length) (other)
chain: MSWLFPLTKSASSSAAGSPGGLTSLQQQKQRLIESLRNSHSSIAEIQKDVEYRLPFTINNLTININILLPPQFPQEKPVISVYPPIRHHLMDKQGVYVTSPLVNNFTMHSDLGKIIQSLLDEFWKNPPVLAPTSTAFPYLYSNPSGMSPYASQGFPFLPPYPPQEANRSITSLSVADTVSSSTTSHTTAKPAAPSFGVLSNLPLPIPTVDASIPTSQNGFGYKMPDVPDAFPELSELSVSQLTDMNEQEEVLLEQFLTLPQLKQIITDKDDLVKSIEELARKNLLLEPSLEAKRQTVLDKYELLTQMKSTFEKKMQRQHELSESCSASALQARLKVAAHEAEEESDNIAEDFLEGKMEIDDFLSSFMEKRTICHCRRAKEEKLQQAIAMHSQFHAPL
modifications: [35S]-methionine radiolabel
notes: In vitro translated in reticulocyte lysate; also called VPS37A^FL; not shown: Myc tag
B3: GST-LC3C (other, UniProt Q9BXW4 1-147, looked up)
chain: MPPPQKIPSVRPFKQRKSLAIRQEEVAGIRAKFPNKIPVVVERYPRETFLPPLDKTKFLVPQELTMTQFLSIIRSRMVLRATEAFYLLVNNKSLVSMSATMAEIYRDYKDEDGFVYMTYASQETFGCLESAAPRDGSSLEDRPCNPL
notes: Recombinant, made in E. coli, held on glutathione Sepharose beads; also called GTS-LC3C; not shown: GST tag
B4: GST-GABARAP (other, UniProt O95166 1-117, looked up)
chain: MKFVYKEEHPFEKRRSEGEKIRKKYPDRVPVIVEKAPKARIGDLDKKKYLVPSDLTVGQFYFLIRKRIHLRAEDALFFFVNNVIPPTSATMGQLYQEHHEEDFFLYIAYSDESVYGL
notes: Recombinant, made in E. coli, held on glutathione Sepharose beads; not shown: GST tag

Key:
[1] = molecular target: T1, FLAG-VPS37A (full length) (UniProt Q8NEZ2 1-397); experiment: Co-IP of FLAG-VPS37A and GFP-GABARAP in HEK293T cells (FIG. 7A)
T1 construct: Expressed in HEK293T cells for Co-IP; also called FLAG-VPS37A^FL; pDest-FLAG-VPS37A^Full; not shown: FLAG tag
T1 sequence (looked up): B2 chain
Source text: (§1) 7A, Co-IP analysis of interactions between FLAG-VPS37A and GFP-LC3A and GFP-GABARAP (GABA) in HEK293T cells. 5% of input was loaded. 7B, Schematic of VPS37A full length and deletion constructs: (i) VPS37A^FL, full length, (ii) VPS37A^deltaUEV deletion of UEV (cyan), (iii) UEV^VPS37A, UEV domain only (cyan), (iv) VPS37A^{deltaN(1-90)} deletion of residues 1-90, (v) VPS37A^{deltaN(1-20)}, deletion of residues 1-20 (red), (vi) VPS37A^{Nter-EGFP}, N-ter 1-22 chimera with GFP. 7C, GST-Pull down of Myc-UEV^VP37A and Myc-VPS37AdeltaCEV with GST or GST-LC3A, GST-LC3C and GST-GABARAP, 2% of Input was loaded. 7D, Co-IP between GFP-LC3A with FLAG-VPS37A^FL, UEV^VPS37A and VPS37A^deltaCEV. 7E, VPS37AdeltaCEV AlphaFold predicted structure; sequence, 1-22 residues, N-terminus of VPS37A (red, residues predicted to contact mATG8s. 7F, Representation of AlphaFold predicted complexes (rank 1; VPS37A^deltaCEV and GABARAP). 7G,7H Co-IP analyses in HEK293T cells expressing FLAG-VPS37A and GFP-LC3A (in 7H) or GFP-GABARAP (in 7G).
Immunoblotting and co-immunoprecipitation assays. Immunoblotting and co-immunoprecipitation (Co-IP) were performed as described previously⁴. For Co-IP, 10 cm dish cells were transfected with 12 μg of plasmids, wherever stated, and lysed in NP-40 buffer containing protease inhibitor cocktail (Roche, cat #11697498001) and PMSF (Sigma, cat #93482). […]

GST-LC3B = GST-LC3B (UniProt Q9GZQ8 1-125); experiment: GST pulldown of in vitro translated [35S] Myc-VPS37A
Source text: Myc-VPS37A with GST or GST tagged LC3A, LC3B, LC3C, GABARAP, GABARAP-L1 and GABARAP-L2. 2% of input was loaded. 1B, AlphaFold predicted complexes between VPS37^{AdeltaCEV} and GABARAP. 1C, Schematic representation of HaloTag (HT)-LC3B MIL/MPL assay adapted for quantitative high content microscopy (HCM). MIL⁺ profiles, HT-LC3B accessible to membrane impermeant ligand; MPL⁺ profiles, HT-LC3B remaining available (not saturated with MIL) to membrane permeant ligand. 1D, MIL/MPL assay in HeLa^WT and HeLa^HexaKO expressing HT-LC3B, starved in EBSS for 90 min±100 nM BafA1. Cells were sequentially incubated with HT ligands MIL and MPL, and HCM quantification carried out; (d-i) MIL-accessible membrane-bound HT-LC3B; (d-ii) MPL-accessible membrane-bound HT-LC3B (remaining available to MPL after MIL saturation). (d-iii) MIL/MPL puncta ratio. […]

[2] = molecular target: T2, Myc-UEV^VPS37A (UEV domain of VPS37A only) (UniProt Q8NEZ2 23-217, [35S]-methionine radiolabel); experiment: GST pulldown of in vitro translated Myc-tagged protein (FIG. 7C)
T2 construct: domain: UEV; the legend is followed; The limits 23-217 are stated for the AlphaFold input, not expressly for the clone; also called Myc-UEV^VP37A; not shown: Myc tag
T2 sequence (looked up): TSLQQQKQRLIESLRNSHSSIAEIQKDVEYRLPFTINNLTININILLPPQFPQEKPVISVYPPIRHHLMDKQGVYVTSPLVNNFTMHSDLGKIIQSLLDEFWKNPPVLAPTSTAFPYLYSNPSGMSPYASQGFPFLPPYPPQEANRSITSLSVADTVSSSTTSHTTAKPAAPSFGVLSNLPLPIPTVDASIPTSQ
Source text: as §1
GST pull-down Assay. Recombinant GST and GST-fusion proteins were produced in Escherichia coli SoluBL21 (Genlantis, #C700200) by inducing expression in overnight cultures with 50-75 μg/mL isopropyl β-D-1-thiogalactopyranoside (IPTG). Expressed proteins were purified by immobilization on Glutathione Sepharose 4 Fast Flow beads (GE Healthcare, #17-5132-01). […]

| Binder | binding result [2] | other results |
| --- | --- | --- |
| B1 |  | binding result [1]: binds |
| B2 |  | binding result (GST-LC3B): no binding |
| B3 | no binding |  |
| B4 | no binding |  |
